“Also recorded” adds a separate entry of the source.
Experiments:
calmodulin (CaM) = calmodulin (CaM) (Homo sapiens, UniProt P0DP23); experiment: Effect of Ca2+ / EGTA on CaM rupture under AFM compressive force; conditions: 1 mM CaCl2 for Ca2+; 2 mM EGTA buffer treatment
Experimental: (§1) In the experiment of compressive force manipulation on both Apo- and Ca^2+-ligated CaM, a modified AFM apparatus with an ultra-soft AFM tip was used to apply compressive force on a single protein molecule tethered to a glass coverslip through covalent bonding between the linker molecule and amino group of the protein, and its response was studied.
The same experiment was carried out on Ca^2+-ligated CaM. FIG. 14B represents the typical AFM compressive force curve on a Ca^2+-ligated single CaM molecule. […] Nevertheless, repeated rupture events on a single protein molecule have been noticed when a repeated force manipulation experiment on the same protein molecule has been carried out.
FIG. 29 illustrates the scheme of tethering single protein molecules on a cover glass surface. The cover glass (Gold Seal) was first cleaned and silanized with a mixture of (3-aminopropyl) trimethoxysilane, isobutyltrimethoxysilane with a ratio of 1:1000 dissolved in DMSO (10% v/v) for 12 hours, and then incubated in 10 nM dimethyl suberimidate in 50 mM PBS (pH 8.0) for 4 h. After washing with water and methanol, the glass slide was incubated in 10 nM CaM solutions (PBS, pH 7.4) for 4 h. […]
Typical compressive force curves were recorded under different conditions. […]

tau protein = tau protein (Homo sapiens, UniProt P10636); experiment: Effect of cations on tau protein rupture under AFM compressive force; conditions: buffer solution pH 7.4
From the text: This gives the indication of the presence of two forms of tau protein under different ionic environment. Under K^+environment tau protein exists as a relatively rigid protein structure which is more prone to collapse under compressive force build up. […] In addition, it was also investigated whether this kind of spontaneous and simultaneous rupture of multiple proteins under close proximity can develop an entangled protein third state, a fusion state, and can be a plausible mechanism for protein aggregation.
The protein molecules were tethered to the cover glass through covalent bonding between the amine group of the protein and the linker molecule attached to the coverglass surface. All the force curves were recorded under buffer solution (pH 7.4). When the AFM tip apex touches the surface of the protein molecule it starts loading force on it, once the force reaches a threshold value it can no longer withhold the force and collapses (FIG. 16A). This kind of behavior exists in globular proteins such as HPPK, calmodulin, and others.
Without wishing to be bound by theory, it is believed that there is a comprehensive model for two types of protein structure responses under compressive forces (FIG. 18C, green curve). One is a balloon-like type, reflected by the stress-strain curve in FIG. 18C, which is more rigid in nature and show rupture under compressive force. […]

[1] = AFM compressive force rupture of single CaM molecules (CaM, Apo-CaM, Ca2+-ligated CaM); type: physicochemical
Experimental: The mean rupture force from the distributions are 25 pN and 47 pN for CaM and HPPK molecules, respectively. ΔG was also calculated for CaM rupture, which is about 25.6±7.3 kBT using Bell-Evans Model. The characteristic behavior is due to different structural rigidity and a different vector orientation of the mechanical force inside different protein molecules.
The experiments for CaM protein were repeated under five different ALRs. FIGS. 11A-11E show the statistical distribution of the threshold force at five different ALRs and characterization of CaM rupture force and loading energy. FIGS. 11A-11E show the rupture threshold force distribution in different loading velocities. […] Loading velocity is 100 nm/s. The threshold force required for a single CaM protein molecule to rupture increases from 12 pN to 35 pN as the approaching velocity increases from 50 nm/s to 1000 nm/s, and the threshold force increases linearly along with the log of ALR (FIG. 8D).
as §1
From this distribution, the rupture force was calculated to be around 70 pN. This rupture force is dependent on the AFM tip approaching velocity. To calculate the actual threshold force loading distance, i.e., the amount of structural change of the targeted Apo-CaM molecule under the process of compressive force loading to the threshold value, the force curves were analyzed considering two factors. First, the force loading process causes the tip bending. Because of that, the distance traveled by the electropiezo scanner exceeds the distance traveled by the AFM tip apex. The amount of tip bending in the process of force loading can be easily taken in account considering the force constant of the cantilever (30 pN/nm). Second, the contribution of the hydration shell around a protein molecule (1-2 nm of width) was considered. Therefore, in the recorded force curves, force increases in a much slower rate at the beginning which corresponds to the AFM tip interaction with the outer solvation layer of the protein. In the latter part of the force curve, the force increases in a much faster manner as the AFM tip starts to interact with the protein surface directly. Without wishing to be bound by theory, it is believed that the contact occurs when the compressive force loaded by the AFM tip reaches a certain value to counter the water solvation layer. […]
It is the distance between the point where force loading starts and the point where protein rupture occurs. […] The loading energy was calculated using Eloading=∫F(l)dl, where l is the compressive force loading distance, and F(l) is the loading force. […] Under this approximation, distribution of the calculated threshold compressive force loading energy was plotted in FIG. 15D using Eloading=(F threshold/2)×lthreshold and the mean value was around 32 kBT; however, the energy can be as low as 10 kBT with significant probability, which is biologically accessible from the local thermal fluctuations, such as in living mammalian cells at 37° C.
The loading energy was calculated using Eloading=J F(l)dl. l is the compressive force loading distance, and F(l) is the loading force curve. […]

[2] = AFM-FRET compressive force rupture of single HPPK molecules; type: physicochemical
From the text: 6-hydroxymethyl-7,8-dihydropterin pyrophosphokinase (HPPK) is a 158-residue monomer kinase enzyme protein which acts as a catalyst in the pyrophosphorylation reaction that drives the conversion of 6-hydroxymethyl-7,8-dihydropterin (HP) to 6-hydroxymethyl-7,8-dihydropterin pyrophosphate (HPPP) in the presence of ATP leading to the biosynthesis of folate cofactors. AFM was used to apply the compressive force on single protein molecules that are tethered on the glass cover slip surface at a controlled low density for single-molecule measurements. The enzyme HPPK was labeled with Cy3/Cy5 donor acceptor FRET pair on the amino acid residues 88 and 142, respectively (FIG. 2A), for probing the conformational changes of single protein under the compressive force.
The structural rupture of a single HPPK protein under compressive force applied by AFM tip was evaluated. […] When the AFM tip touches a single protein molecule, a compressive force is applied on the targeted protein, the force monotonically increases up to the level of about 60 pN (FIG. 1E), and then the force drops to zero abruptly.
As the piezo continues to approach toward the surface, the compressive force on the protein molecule increases; simultaneously, the protein starts to deform. When the force reaches a threshold value, the protein molecule suddenly ruptures, and the force on the tip releases to zero. As the AFM piezo continues to approach the glass coverslip surface, the tip on glass cannot move anymore, and as a result, piezo displacement causes tip bending. Therefore, from top to bottom, the cantilever bending distance=the piezo displacement D (nm); and the direct AFM instrumental electronic signal was measured and recorded for the loading force, F (mV). If the cantilever force constant k (pN/nm) is known, then, from the reading of measured f (mV), the protein rupture threshold force (pN)=[…] can be calculated.
To evaluate the relation between the compressive threshold force and the tip approaching velocity, the experiment was repeated under different approaching velocities (FIGS. 8-9). The threshold force for a single protein HPPK rupture increases as the apparent loading rate (ALR) by the AFM tip increases (FIG. 8B). ALR equals the approaching velocity times the force constant of AFM cantilever.
A two-state theoretical model, the Bell-Evans theory (eqn. 3), was used to analyze the linear dependence of rupture force with the logarithm of loading rate (FIG. 8B):
where F(r) is the most probable rupture force; kB, the Boltzmann's constant; T, temperature in Kelvin; Xβ is the distance between the bonded state and the transition state where the activation barrier is located; r, the loading rate; and ko the off-rate constant at zero force. The fitting gives two model parameters, kinetic off rate constant ko=12.2±4.5 s^−1 and the distance from the bound to transition state, Xβ=0.34±0.05 nm. Using ko, the barrier height of the transition state (ΔG) was also calculated using the following equation (eqn. 4), where h is the Planck's constant. ΔG of HPPK protein rupture is 27.0±9.8 kBT.
The cover glass (Gold Seal) was first cleaned and silanized with a mixture of (3-aminopropyl) trimethoxysilane and isobutyltrimethoxysilane with a ratio of 1:10000 dissolved in DMSO (10% v/v) for 12 hours, and then incubated in 10 nM dimethyl suberimidate in 50 mM PBS (pH 8.0) for 4 h. After washing by water and methanol, the glass slide was incubated in 10 nM HPPK solutions (PBS, pH 7.4) for 4 h. The possibility of two protein molecules locating underneath the AFM tip or in the same laser focus spot of around 300 nm diameters is almost zero. Cy3-Cy5 labeled HPPK molecules were tethered randomly on a cover glass surface and then incubated in PBS buffer (pH=7.4) in a homemade chamber immobilized on top of the microscope. To decrease photobleaching, added 0.8% D-glucose, 1 mg/mL glucose oxidase, 0.04 mg/mL catalase, and about 1 mM Trolox were added in the buffer as an oxygen scavenger. […]

Sequence of tau protein (P10636 1-441 isoform P10636-8): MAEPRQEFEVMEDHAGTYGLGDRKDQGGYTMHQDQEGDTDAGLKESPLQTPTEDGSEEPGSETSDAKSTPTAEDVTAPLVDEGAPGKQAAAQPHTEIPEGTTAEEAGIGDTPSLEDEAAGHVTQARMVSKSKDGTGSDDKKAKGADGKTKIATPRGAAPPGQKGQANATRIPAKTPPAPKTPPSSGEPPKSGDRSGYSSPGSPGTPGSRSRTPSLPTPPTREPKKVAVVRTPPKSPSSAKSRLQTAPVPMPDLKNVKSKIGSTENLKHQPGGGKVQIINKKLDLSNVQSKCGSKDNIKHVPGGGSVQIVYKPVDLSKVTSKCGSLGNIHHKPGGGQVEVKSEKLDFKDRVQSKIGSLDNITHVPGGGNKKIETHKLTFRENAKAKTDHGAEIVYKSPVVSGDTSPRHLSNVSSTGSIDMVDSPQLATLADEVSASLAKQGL

For [Ca+2] [Ca^2+], the “rupture event of CaM under compressive force in presence of / after treatment with the substance” value (calmodulin (CaM)) was “does not go through a structural rupture; also recorded: No force drop was recorded”.

With O=C(O)CN(CCOCCOCCN(CC(=O)O)CC(=O)O)CC(=O)O [EGTA, reference compound] the “rupture event of CaM under compressive force in presence of / after treatment with the substance” value (calmodulin (CaM)) was “the rupture event recovers”.

With [K+] [K^+, reference compound] the “rupture event of tau protein under compressive force in presence of the cation” value (tau protein) was “the rupture event remains”.

For [Mg+2] [Mg^2+], the “rupture event of tau protein under compressive force in presence of the cation” value (tau protein) was “does not show such rupture events; also recorded: no rupture event was found; also recorded: No rupture event was observed”.

In the case of calmodulin [CaM], the rupture threshold force ([1]; 50 nm/s approaching velocity) is reported as 12 pN, the loading energy ([1]; 100 nm/s loading velocity) is reported as 4-8 kBT and the mean rupture force ([1]; 200 nm/s loading velocity) is reported as 25 pN. The rupture threshold force ([1]; 1000 nm/s approaching velocity) was 35 pN and the ΔG of rupture ([1]; Bell-Evans Model) was “about 25.6±7.3 kBT”.

B1: 6-hydroxymethyl-7,8-dihydropterin pyrophosphokinase (protein, UniProt P26281 2-159, looked up)
2-amino-4-hydroxy-6-hydroxymet …: TVAYIAIGSNLASPLEQVNAALKALGDIPESHILTVSSFYRTPPLGPQDQPDYLNAAVALETSLAPEELLNHTQRIELQQGRVRKAERWGPRTLDLDIMLFGNEVINTERLTVPHYDMKNRGFMLWPLFEIAPELVFPDGEMLRQILHTRAFDKLNKW
notes: 158-residue monomer kinase enzyme protein
For B1, the “rupture threshold force (mean)” value ([2]; 200 nm/s approaching/loading velocity) was 47 pN, the “threshold compressive force loading energy” value ([2]; 200 nm/s loading velocity) was “around 30 kBT” and the rupture threshold force ([2]; 2000 nm/s approaching velocity) was 75 pN. The “distance from the bound to transition state Xβ” value ([2]; Bell-Evans fit) was 0.34±0.05 nm, the “kinetic off rate constant ko” value ([2]; Bell-Evans fit of rupture force vs loading rate) was 12.2 ± 4.5 s⁻¹ and the “AFM piezoelectric displacement from start of force loading to rupture” value ([2]; average, FIG. 10C) was 5.0˜6.0 nm. The “barrier height of the transition state ΔG of protein rupture” value ([2]; calculated from ko) was 27.0±9.8 kBT and the “compressive force level reached before abrupt drop” value ([2]; single force curve, FIG. 1E) was “about 60 pN”.

Source: patent publication US20200216824A1, “REGULATING PROTEIN SPONTANEOUS RUPTURES” (Bowling Green State University, priority 2019, published 2020)
